Results as given in paper doi:10.1101/2020.04.29.069500.

Biological target: first Tudor domain of PHF20L1 (PHF20L1 Tudor1) (UniProt A8MW92)
Test: NMR titration

UniProt A8MW92, sequence (A8MW92 5-70): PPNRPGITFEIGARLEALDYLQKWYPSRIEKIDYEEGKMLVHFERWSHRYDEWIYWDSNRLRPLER

Kd: 670 µM
Substance: K142 mono-methylated (K142me1) DNMT1 peptide
